Source: the NTF2 design screens of Basanta et al. (2020)

Assay: protease stability score; higher = more stable; yeast display proteolysis, trypsin and chymotrypsin;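 note: log10 excess protease needed over predicted unfolded state with 0 meaning unfolded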

First: DEDAERRMREQLKVFNRGNPDQMVKYMDKDARIEVGDTVVEGREDWRHEIDKQKKEAKYKIDVKRVDVDGDDLTIDATISVDHNGKPREKKLIVEAKLHNGKLKHARYDNRG
Second: DEDAFRVWRRLLSAIRDGDEDKVRNQADENATATIGDKTWHGMTTLAHELVHEARNLRFTQRITHYSVDNGRVNADYRFTKNENGRPQEDRVLVRFVAHNGQLKSVHNTKIS
The protease stability score of the first is lower: -0.05 for the first, 0.131 for the second.

Compared with “DEDAHKRYEHIERVMEHGDESTLEQLMDPNARIQVGDKEVRGMNKWAKEVAEEIRQMEVRVDIKSVDVRGNRVRVEAKYTVNVNGRPKTATKEVVLDFENGRVSYVQVRFDPDRKKSIDQ”, “DEDAHRLVEEFWRALKDGDSEQIKELADKDVHVQVGDTKVHGREELASQVQRERDQMSVDLKIDHVELNEDHVDVEAKMVVEHNGKPKTNKAKLDFRFHNGKLQMMRRQTRQ” is lower in protease stability score: 0.443 for the first, -0.184 for the second.

First: DEDAHRRASTLMTAIENNDPHKVMQMFDEDAKVDVGDKRVSGRERQAEEERERNTQSRVRYKSYKIDAQGNKVRVHADFEVHHNGRPDRKRMKAVFNYDNGKIKQATVKDDK
Second: DEDAIRSVEKMLQDRRTGNPHEVQKMFDPNAQVDVGDKTVQGRENIKDHVETDLRQSRFHMEIKHVQAHNGQIDIDAERSYTRNGQPDSNRVEIVIDIKNGKIRSVKVRTDD
The protease stability score of the first is higher: -0.235 for the first, -0.488 for the second.

Going from “DEDAIRVANEILKAIKEGDPHQIEEQFDKHARATYGDKTIEGSKNIMNFQKQMMDRASIKIDSVRLKNQGDHANLDYRAKVTHNGTPNDRRFTADVTVRNGKMRVFDVESRP” to “DEDAKKQVETMIRLIERGNEKEIKKQMDPNATYQVGDNRLHGMDQVNKHLKDLKEQMRFVFDVKSITVRGDKVDIDLQLDKNENGRPDKEDARMIVHVHNGSVKSVIVTTRG”, the protease stability score rises from -0.365 to 0.143.

First: DEDAKRSLNELWKAIQQGDPDRIRELIDKNVRLRYGEKRIHGRDQAAKFWHDLHDHARFKVRDVSIKIHNGRADVRMRMTIHINGEPLDVTVIYKIEFHNGQAVRIELEVDEDQLRKQRK
Second: DEDAKRVANEISKAFDQNDPDKARQLADENAEVQIGDKVLHGRDQATNQLERQREEQNEHVDSVEIDVDGDKLKVRIHFNSHSNGRPRRNTRTYTIVVRNGHLQHLDMKENG
The protease stability score of the first is higher: 0.845 for the first, -0.246 for the second.

First: DEDALDLLEKAARAYQTGDPDQLMRNLDEDAKVDVGDKKIRGRNDARRHLQELKDKIELHLHVTEMSVQGNKVHAHFKLHSDQNGKPYHTDVEMRADVHNGRVKRMEIRTTK
Second: DEDALDQVEEMMRNNNEQEIADRADKDVEVEYGDHELHGREDMQDWAEKWQQQVDHLEVKSVHKKGDHFKMKLRAVFNGQEYTFVMVVEVHNGKIKNIKYDATSKEVKEIQKEVLK
The protease stability score of the first is higher: -0.159 for the first, -0.163 for the second.

Going from “DEDALKQMHENLENIKEGDPDKIKKMFDENARVEVGDKVLNGRDQASKFWSELRDQINIHIRDVKLSVSGEEVTINIDARFTHNGQPQTSIFRIEAELHNGTIKSLRVKLDG” to “DEDALRKFKEFLEIKREGDERRLLELFDENVKIVVGDTELEGMTEAARDITRKRKEMRVEQRYDRFHVQGEHIRARARFTVKFNGRPHTNENTFRVVLRNGHYKSYELKIDPDELRKLDS”, the protease stability score falls from 2.02 to -0.083.

Compared with “DEDALRNWEQFIRNYKHGDETELQKLVDPNVHVRIGDREIHGREKLREHWRRQKEHARVDINVRSLEDQGSKVQVTFKMQYQVNGQPKHNSMRMEFTVRNGRIVEASYQFDPDEHRKLQS”, “DEDALRVFDKLVKAWKNNDEDKMKKLMDPNVKVEYGDKQVHGMDEYLHSMVTRQRQIRVHFRVKDIKTRPGRVVANYEVEEENDGKPHHTKVRVTLKVHNGRVKQAEYDVKP” is lower in protease stability score: 1.23 for the first, 0.017 for the second.

Going from “DEDALTRIEDAAKHMNEGNFERYADMADPNAHVNIGDKTYQGRESLKHLMQEQRERWEFKLDVRRVDQDGEKAVVTAKVNQKHNGKPDTKTVYIYVSWKNGRAQEIEVRQDS” to “DEDALTRLREFDDNVRKGNKHRLQDLMDPNVKVRYGDTEIKGREHVAKELKKLVDTMHIEIDYKSMSAEGNHATLTAEVVVQVNGRPIKFRMHVQVQFENGKIKELVYRFSEDAQKKMDG”, the protease stability score rises from 0.319 to 1.53.

Compared with “DEDAMKRFKDLLRAQETGDEHRIRELVDPNAQFVIGDRKITGREEYVRIFREERENMHIDLEVKSVSVKGNKLTIHLTFKVDHNGKPMRASAQIQVKIRNGRIQEVQYDFDEDQLRKLKR”, “DEDANDVVRKYIEAVNTGDPDQVNELVDPNVRVEVGDKTLSGHEEIRKEQQERTKQSRVEIEVKQMKVHGDNIILYAVVRYNHNGKPSSRHVKMTFSAHNGHFKHIRVHDDQ” is higher in protease stability score: 0.32 for the first, 0.809 for the second.

Going from “DEDANENIRKQLEWEEKGNPQQAKKQADPNAQFNIGDHTFNGMDEYMHWVKRELTHLRIEIKDVKFDVQGEKIEIDVRFVVDENGRPKEDRQDFDVTMHNGHIHNINVDKIS” to “DEDANHRFKDQVRAIKTGDSKRVEELVDPNVHNHVGEWRVHGSTHWATLAKQVRDEMRVDLDIKSVENSGNKLNIDANVIIDHNGKPHRNQVNWNVNNHNGRIQEASAKKSN”, the protease stability score falls from -0.21 to -0.484.

First: DEDANKVMKKVVEAIKEGDPDTIRKLVDPNARVNVGDTTVNGREEFARQNHEKMNQSRIHYLSMDFEQREGHAVVTVRFEKHHNGKPDTDRYRATANFKNGKLTEYKQKEDG
Second: DEDANNTAKEMLENIDEGNEKRWSELMDENATFNVGDKTYHGRENAEHLFRERKDEMRIEIDLHKVEVSGDHVVLDITVVKEHNGKPRRVDVQVEFRIHNGRMQEFVQDEHG
The protease stability score of the first is lower: -0.291 for the first, 0.245 for the second.

Going from “DEDANRELHKAMKHNDWDLLAKQMDKDVSKQVGDKTVHGRDRIQEDIKRLKTEIDHMEIEHVSARGDHLTADVHLVVNGQHVKFVIHIQFDNGRIKQIQWQVRDEDVEKQMKKLKG” to “DEDANRKAEEFAQNLRENDEDRLQQLVDPNARLNVGEFSVHGRTELTHQLRRVTREMRVEVQIRDIRVQNGHAHLDIEVVIDHNGKPSSRVLRMVVDFRNGKIQNLDVRTDQ”, the protease stability score rises from -0.074 to 0.601.

First: DEDANRKAREYAHAREHGDPRHAREYADPNAEFTVGDKSFHGMQEDVERMERERKEMRVEIKDVQVSAHDGRLTLDLRFVKDNNGQPREVRQNVQFNIENGRATEIDVQETK
Second: DEDANRLVEEYIRAVEKGDEDQARRMMDENVTVKVGDKTVHGHDHQAREMNKVKKQARIEIKDYRLDNSNGRVVIRMTFIADRNGKPITFDIVIIINFHNGRAKNMHVHISEEELKRLEG
The protease stability score of the first is lower: -0.214 for the first, 1.06 for the second.

Going from “DEDANRRLRRLIEQIHENDPDKIDEMFDPNARVDIGDHTVHGREQLRQTVKREAKEIRIRIERLDVRVKGDKATVEMHFVRKNNGEPRSNRVVVTARIRNGKIESMKQTEDG” to “DEDAQELAEQLWTAWETGDPRQIQNLMDPNVNFRYGDKTFQGREHLHRLIKDIQENIRIDYRHYSVDVKGDKASIKINIQLHHDGKPETKTNDLTIHFSGDRIQRVEQNDRQ”, the protease stability score falls from 0.763 to 0.248.

Compared with “DEDAQKQVEKMLQAVREGDDRQIKRLFDPNAEINVGDKHVTGREQATKEMSKRKKEMDIDIKIEEVQVKGDRVELKAVVLENKNGDPQTFHVRAVYHAHNGKIRTNNVEKDG”, “DEDAQKRAEEMMHALQNGDEKQIQTLFDKDAKVNVGDKEYHGKEQLAHDLKRRHDKIRVDYKDVHIRAHGDKVSLTFRVRVKINGVPADNSFQFTLKFRNGHVQSMSQQFDPKYEQDQRN” is higher in protease stability score: -0.074 for the first, -0.033 for the second.

Compared with “DEDAQKTVRKFLENITTGNPENAEKLLDPNVHIHYGDKRVSGRDQFHREAKQKLHDMRLSIDIKEVQVQGNRIDVDVRFSVNHNGRPYTITAHLSIEMSNGHIEHMELRIDESDKRRQKR”, “DEDAQRQVEELLKAEHEGDPKKFQELADPNVNAIYGDKRVHGRETLADQLAERVREMRVHYDSIDLRVRGNKVNVHINAKFKYNGVPIEISMTVVFVFHNGRLQRREVSIPEEVQTELTR” is higher in protease stability score: -0.237 for the first, 0.129 for the second.

Compared with “DEDAQTQVEKMLKNMQRGDNQEVNKMFDKNVEFRVGDRDIHGREEYARQVSREHKESRVEFRHIHARVKGDHVRIRVDVVRQVNGKPQRMTVEFEVQAHNGKIKRFQVEFDPDEERRVQK”, “DEDARKLAEELLKAQETGDPKTLKRLVDPNVKVDVGDKTFHGMDEINEEVTRTKRRQRVKIDRVSIHVRGDSVVIHVTEKNEKDGQPSSRQYVQEMRVTNGHVVEMKQNKSR” is lower in protease stability score: 0.196 for the first, -0.468 for the second.
